# Experimental data as given in patent US20020137113A1.
# Columns and labels:
# [1] = biological target: gD.trkB.IgG (gD tagged trkB.IgG fusion protein) (Herpes simplex virus; human) (UniProt Q16620); experiment: competitive displacement of iodinated NT5 from gD tagged trkB.IgG in 293 cell supernatant
# [2] = biological target: gD.trkC.IgG (gD tagged trkC.IgG fusion protein) (Herpes simplex virus; human) (UniProt Q16288); experiment: competitive displacement of iodinated NT3 from gD tagged trkC.IgG in 293 cell supernatant
# [3] = biological target: trkC.IgG (untagged trk.IgG fusion of the trkC extracellular domain and IgG-1 Fc) (human) (UniProt Q16288); experiment: competitive displacement of iodinated NT3 from trkC.IgG in 293 cell supernatant
IC50 [1],IC50 [2],IC50 [3],Binder
0.0121 nM,,,"neurotrophin 5 (NT5) (ligand, UniProt P34130 81-210, looked up) GVSETAPASRRGELAVCDAVSGWVTDRRTAVDLRGREVEVLGEVPAAGGSPLRQYFFETRCKADNAEEGGPGAGGGGCRGVDRRHWVSECKAKQSYVRALTADAQGRVGWRWIRIDTACVCTLLSRTGRA"
,0.0302 nM,0.0311 nM,"neurotrophin 3 (NT3) (ligand, UniProt P20783 139-257, looked up) YAEHKSHRGEYSVCDSESLWVTDKSSAIDIRGHQVTVLGEIKTGNSPVKQYFYETRCKEARPVKNGCRGIDDKHWNSQCKTSQTYVRALTSENNKLVGWRWIRIDTSCVCALSRKIGRT"
